B1: TPR t1 (parent)
chain: GACCAAUCUGCCCUCAGAGCUCGAGAACAUCUUCGGAUGCAGAGGAGGCAGGCUUCGGUGGCGCGAUAGCGCCAACGUCCUCAACCUCCAAUGCAUCCCACCACAUGAUGAUGCCUGAAGAGCCUUGGUUUUUUG

Variants of: B1
Test: polymerase ribozyme fitness, log enrichment relative to wild type (log ratio); higher = more active; in vitro selection for triplet polymerase activity
Outline: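 Fitness measures genotype enrichment against wild-type enrichment on a logarithmic scale, with inverse-variance-weighted averaging of replicates. The logarithm is base 2, and genotypes were kept only with ≥10 input reads and ≥1 read per output in Illumina sequencing. The sequenced libraries came from one triplicate in vitro selection round, including frozen incubation at −7 °C, of PCR-built, transcribed mutant libraries of each subunit of a heterodimeric triplet polymerase ribozyme.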

Variant | polymerase ribozyme fitness (log ratio)
C11G A66U | -0.995
C72A A75C | -0.344
C3U A29G C53U G57C C86G | -4.64
C20U A43U C114G C123A | -2.41
C8G C20U G69U C101U | -1.07
U78C C80U C99U A121G | -3.12
C3A C56A G71A G127U | -3.57
G63U A90U G113C | -3.41
A27U A83U C86U U129C | -3.64
C20G C53G | -4.62
U112A C114A U133A | -1.04
C12A C72A C99A G120U G128U | -7.62
C62A C98U C123A | -2.16
C11U C102U | -2.09
A46U C56U | -0.82
C28U C72U | -2.26
C97U A121U | 1.5
G10C C15A A50U C115U | -5.25
A16G C94U | -1.93
C12G C28G A37U G110U | 0.364
A6G C13G G51A C79G C88A G93C A108U C115U C124U | -7.39

Variant | polymerase ribozyme fitness (log ratio)
G17A C62A U87C | -6.24
C12A G63C A111U | -4.83
C11A A119C C124G | -4.46
C70U A111C U116G A121C | -4.3
A50U G57C G60C C85G G113A | -2.27
C15G C86U U116G | -2.95
G42A U87G | -1.65
A18U A27G C72A C115A G120C | -3.08
C34A U87A A90G | -2.87
G47C C82U | -1.27
G17C A26G A37U C53G G57A A91G G93U A111U U129G | -6.27
C8G C22U C53A C101A A121G C124A | -3.25
C40A A118U G120U | -1.37
C12U G19U | -2.49
G57U A95U A121U C124U | 1.18
C49G G63U U92C | -3.98
G51U U78C A111C C123U | -6.69
U78C A95C C123A | 0.0148
G10U C13G C80U G135U | -1.95
C12G U78A G93A C124G | 0.89
C12U C101U | -0.102

Variant | polymerase ribozyme fitness (log ratio)
G42U U78C C123G | 0.17
U7A U33A A100G G120C G135A | -3.75
C12G A26U G77A | -2.58
C13A A83U | -2.07
A27U U133A | -3.33
G93U C94U | -1.22
U32A U38C G69C A95U | -6.24
U109A G110U | -3.28
U32C A46U G63C C104A G117C | -6.2
A16G U92C C102A | -5.14
C34U A74U | -4.36
A50C U125A | -0.974
C70G U106C | -2.51
G63A C123U | 0.883
C8U G44U G52A G63C A84U C85A | -6.83
G48C C101U U112C | 0.0907
C12A G17U A46G C80G A84G C115A | -4.53
C20G G93A | -5.03
C28U C49G U129A | -5.15
C72G C97U G122A | -1.57
C22G A43U U106A C115A | -1.37

Variant | polymerase ribozyme fitness (log ratio)
U7C C11A G45C G58A A121C | 0.57
G42C G120A U132A | -0.616
G45U C70U A119U G127A | -3.74
U92A G128U | -4.84
C53A U78G C82A | 0.638
C13G G48C U106C U112G G122A G135A | -2.17
C13A C15G U106A G117C | -0.827
C40U G57C A90C A103U U112G | -6.33
C13U A37C C40A C73A G93A G117U | -3.4
U54C C115U | -0.738
A6U A27G C79U A111C | -4.62
U54C G71A C102A C123A | -3.7
U9A C80U | 0.294
C12A C15A C70A C72A G110U | -6.17
U78C | -0.247
U7G A18U C101U | -1.59
C20G G71A C72A C80U G110C G117C | -6.92
G110C G122U | -4.38
A2C C4U C13A C49A C56A G71A U87A | -6.32
C12U A16C U59A U92C C124A | 0.146

Reference: the RNAGym collection of RNA variant scans (doi:10.1073/pnas.2313332121)
